Article doi:10.1101/412908 (bioRxiv, 2018)

B1: human Hsp90β (natural protein)
chain: not shown
B2: acrylodan-labeled C-terminal domain of Aha1 (164-338) (domain or fragment)
chain: ILPTMNGESVDPVGQPALKTEERKAKPAPSKTQARPVGVKIPTCKITLKETFLTSPEELYRVFTTQELVQAFTHAPATLEADRGGKFHMVDGNVSGEFTDLVPEKHIVMKWRFKSWPEGHFATITLTFIDKNGETELCMEGRGIPAPEEERTRQGWQRYYFEGIKQTFGYGARLF
modifications: acrylodan (thiol-reactive probe on cysteine residues)

How the values were obtained:
[1] = target: B2; assay: other fluorescence titration
[2] = target: B1; assay: other fluorescence titration

Row | Binder | fold increase in Kd with SEW04784 against without [1] [fold] | binding result [2]
1 | B1 | 2.5 | 
2 | B2 |  | binds
